Data on 3 substances can be found in US7045552B2, “Pharmaceutical composition for improved administration of HIV gp41-derived peptides, and its use in therapy” (Trimeris, Inc., priority 2002, dated 2006).

Test [1] concerns HIV. The following applies: cited from earlier work.
Test [2] addresses HIV-1 gp41 (HIV-1).
Test [3] has as its target HIV-1 gp41 (HIV-1). This is another data set of the same source.

In the case of “NNLLRAIEAQQHLLQLTVWGIKQLQARILAVERYLKDQ [DP107]”, the “50% effective concentration (EC50), blocked infection of T cells” value in test [1] is 1000 ng/mL. As for T1249 (SEQ ID NO:5) (peptide), the IC50 (ng/ml), Magi-CCR5 infectivity assay; mannitol formulation in test [2] came to 3.6 ng/mL. On to T20 (SEQ ID NO:4) (peptide), for which the IC50, antiviral potency by the methods of Example 2; PEG 1500 formulation in test [3] worked out at 6.6 ng/mL.
